Like-named read-outs stand apart in the source and are kept apart here. Values belong to the binder of their own block, whether it stands above or below them. Positions of bridges follow the written chain, without caps; N, C: chain ends. Non-standard residues stand in square brackets, D forms with d. Primed or numbered codes have the meaning given here. Chains are numbered I, II in the order given. No end group written: not given here. *: point of attachment. Palmitoyl = CCCCCCCCCCCCCCCC(=O)*; PEG2″ = not defined here
Assays:
trypsin = trypsin (human); assay: enzyme inhibition
FXIIa (Factor XIIa) = target: T1, FXIIa (Factor XIIa) (human, UniProt P00748 373-615)
T1 chain: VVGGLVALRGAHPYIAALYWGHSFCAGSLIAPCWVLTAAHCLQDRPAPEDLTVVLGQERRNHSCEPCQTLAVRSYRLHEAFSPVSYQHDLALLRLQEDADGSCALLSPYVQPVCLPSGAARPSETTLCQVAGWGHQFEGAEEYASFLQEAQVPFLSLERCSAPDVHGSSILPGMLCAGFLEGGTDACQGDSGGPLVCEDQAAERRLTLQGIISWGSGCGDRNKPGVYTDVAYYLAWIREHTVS

[1] = target: human Kallikrein-related peptidase 5 (hKLK5) (human, UniProt Q9Y337 67-293); assay: enzyme inhibition
Sequence of human Kallikrein-related peptidase 5 (hKLK5) (Q9Y337 67-293): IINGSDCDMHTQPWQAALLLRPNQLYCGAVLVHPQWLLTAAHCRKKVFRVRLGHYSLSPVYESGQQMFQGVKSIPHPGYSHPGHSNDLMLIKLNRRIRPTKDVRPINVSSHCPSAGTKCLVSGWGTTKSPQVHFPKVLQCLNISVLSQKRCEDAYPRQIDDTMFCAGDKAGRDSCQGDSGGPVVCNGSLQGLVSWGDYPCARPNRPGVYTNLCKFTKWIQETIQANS

uPA = assay: enzyme inhibition
PK = assay: enzyme inhibition
plasmin = assay: enzyme inhibition
tPA = assay: enzyme inhibition
thrombin = assay: enzyme inhibition
[2] = target: T2, mouse serum albumin (MSA) (mouse, UniProt P07724 25-608)
T2 sequence (P07724 25-608): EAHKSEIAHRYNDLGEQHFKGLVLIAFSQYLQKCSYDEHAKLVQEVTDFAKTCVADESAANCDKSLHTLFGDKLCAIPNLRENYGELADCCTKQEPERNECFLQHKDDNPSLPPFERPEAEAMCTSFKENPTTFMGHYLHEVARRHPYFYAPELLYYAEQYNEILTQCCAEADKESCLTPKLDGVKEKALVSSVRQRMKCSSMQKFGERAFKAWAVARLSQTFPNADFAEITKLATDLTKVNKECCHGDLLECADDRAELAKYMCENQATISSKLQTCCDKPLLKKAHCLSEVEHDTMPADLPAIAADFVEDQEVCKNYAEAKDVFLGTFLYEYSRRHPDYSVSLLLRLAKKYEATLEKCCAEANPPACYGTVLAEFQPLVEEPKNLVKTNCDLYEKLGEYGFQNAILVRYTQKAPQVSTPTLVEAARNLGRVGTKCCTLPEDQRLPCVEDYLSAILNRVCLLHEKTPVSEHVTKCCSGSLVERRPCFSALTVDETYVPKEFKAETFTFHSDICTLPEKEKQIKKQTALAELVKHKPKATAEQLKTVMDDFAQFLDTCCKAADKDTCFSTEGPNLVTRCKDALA

[3] = target: T2, mouse serum albumin (MSA); assay: fluorescence polarization
[4] = target: human serum albumin (HSA) (human, UniProt P02768 25-609); assay: fluorescence polarization; human serum dilution

Ki (uPA): > 100 µM | Ki (PK): > 100 µM | Ki (plasmin): > 100 µM | Ki (tPA): > 100 µM | Ki (thrombin): > 100 µM
Binder: GCTRQYPC (linker 2-8 via 1,3‑dibromoacetone) [peptide 035]

Kd [2]: 7.9 µM
Binder: EYEK(Palmitoyl)EYE-fluorescein [albumin tag with fluorescein at the C-terminus (tag-F)]

Further lines, the binder ahead of its results:

Binder: GCTRQYPC (linker 2-8 via 1,3‑dibromoacetone) [peptide 035 (lead KLK5 inhibitor)]
Ki (trypsin): 60 µM | Ki (FXIIa (Factor XIIa)): 43 µM | Ki [1]: 0.01 µM

B1: SSSKSSS-tag (peptide)
peptide: SSSKSSS
modifications: not fully specified (residue 4, N-terminus); also: fluorescein as in the albumin tag
Kd [3]: 10.1 µM

B2: N-terminal albumin tag conjugate of KLK7 inhibitor 096 (peptide)
peptide 1: EYEK(Palmitoyl)EYE[PEG2″]
peptide 2: PCLYLARCS
modifications: bridge II:2-II:8; not fully specified (N-terminus, bridges); also: tag C-terminus joined through PEG2 to inhibitor N-terminus (one linear molecule)
Kd [4]: 0.168 µM

B3: N-terminal albumin tag conjugate of KLK5 inhibitor 035 (peptide)
peptide 1: EYEK(Palmitoyl)EYE[PEG2″]
peptide 2: GCTRQYPC
modifications: bridge II:2-II:8; not fully specified (N-terminus, bridges); also: tag C-terminus joined through PEG2 to inhibitor N-terminus (one linear molecule)
Kd [4]: 0.118 µM

B4: KLK5 inhibitor 035-tag (C-terminal albumin tag conjugate of 035) (peptide)
peptide 1: GCTRQYPCGKG
peptide 2: EYEK(Palmitoyl)EYE
modifications: bridge I:2-I:8; not fully specified (N-terminus, C-terminus, bridges); also: albumin tag (chain 2) joined via PEG2 to side chain of Lys10 of chain 1, tag end used not given here, N-terminal fluorescein via PEG2, chain not given here
Kd [3]: 7 µM

From patent publication US20220267379A1 (published 2022)
